Results as given in article PMC12193700, “Hyperthermophilic L-Asparaginase from Thermococcus sibiricus and Its Double Mutant with Increased Activity: Insights into Substrate Specificity and Structure” (International Journal of Molecular Sciences, 2025).

Columns and labels:
Assay in all cases: direct Nesslerization (ammonia release)
TsAI = biological target: T1, TsAI (Thermococcus sibiricus, UniProt C6A532, D54G/T56Q); format: biochemical; settings: 90 °C, 0.05 M Tris-HCl pH 9.0; 0.25–20 mM substrate
T1 construct: gene TSIB_1676; full-length, 331 residues, homodimer
Description: (§1) direct Nesslerization (ammonia release) on TsAI

[1] = substrate: NC(=O)C[C@@H](N)C(=O)O; format: biochemical, Thermococcus sibiricus; settings: 90 °C, 0.05 M Tris-HCl pH 9.0, 0.25–30 mM substrate
Description: as §1

[2] = substrate: NC(=O)CC[C@@H](N)C(=O)O; format: biochemical, Thermococcus sibiricus; settings: 90 °C, 0.05 M Tris-HCl pH 9.0, 0.25–40 mM substrate
Description: as §1

[3] = substrate: NC(=O)C[C@H](N)C(=O)O; format: biochemical, Thermococcus sibiricus; settings: 90 °C, 0.05 M Tris-HCl pH 9.0, 0.25–20 mM substrate
Description: as §1

[4] = substrate: NC(=O)CC[C@H](N)C(=O)O; format: biochemical, Thermococcus sibiricus; settings: 90 °C, 0.05 M Tris-HCl pH 9.0, 0.25–30 mM substrate
Description: as §1

Row | Km (TsAI) | Molecule | Km [1] | Vmax [1] | Km [2] | Vmax [2] | Km [3] | Vmax [3] | Km [4] | Vmax [4]
1 | 6.03 ± 0.15 mM | NC(=O)C[C@H](N)C(=O)O [L-asparagine] | – | – | – | – | – | – | – | –
2 | – | TsAI (Thermococcus sibiricus MM 739) (protein, full-length, 331 residues, homodimer) MKKLLIIGTGGTIASAKTEQGYKSVLKIDEILKLAKIKLENGYKIDSTNIMNIDSTLIHPEDWEIIAKEVFKALDDYDGIIITHGTDTLAYTASMLSFMIKNPNKPIVLTGSMLPITENGSDAPRNIRTAIKFAMEDVAGVFVAFMDKIMLGCRTSKVRTLGLNAFMSINYPDVAYVKGEKILYNIPKEKFQPNGSPELDTKYEPRVVVLRVTPGLGGEIIDAVLDAGYKGIVLEGYGAGGLPYRKSNLLSKIKEITPKIPVIMTTQALYDGVDMRKYEVGRKALETGIIPAKDMTKEATITKLMWALGHTKDVEKIREIMHTNYVNEIKS | 8.63 ± 0.48 mM | 660 µM/min | 13.86 ± 0.86 mM | 180 µM/min | 3.10 ± 0.15 mM | 4020 µM/min | 11.09 ± 0.25 mM | 280 µM/min
3 | – | TsAI (Thermococcus sibiricus MM 739; D54G/T56Q) (protein, full-length, 331 residues, homodimer) MKKLLIIGTGGTIASAKTEQGYKSVLKIDEILKLAKIKLENGYKIDSTNIMNIGSQLIHPEDWEIIAKEVFKALDDYDGIIITHGTDTLAYTASMLSFMIKNPNKPIVLTGSMLPITENGSDAPRNIRTAIKFAMEDVAGVFVAFMDKIMLGCRTSKVRTLGLNAFMSINYPDVAYVKGEKILYNIPKEKFQPNGSPELDTKYEPRVVVLRVTPGLGGEIIDAVLDAGYKGIVLEGYGAGGLPYRKSNLLSKIKEITPKIPVIMTTQALYDGVDMRKYEVGRKALETGIIPAKDMTKEATITKLMWALGHTKDVEKIREIMHTNYVNEIKS | 9.18 ± 0.86 mM | 590 µM/min | 14.40 ± 1.60 mM | 180 µM/min | – | – | 11.41 ± 0.27 mM | 250 µM/min
